From patent publication US20260216326A1 (PROMETHEUS BIOSCIENCES, published 2026)
Positions count from the first letter of the chain named.

T1: human TL1A (Fitzgerald #30R-AT070) (human, UniProt O95150 72-251, limits assumed)
T1 construct: Coated on the ELISA plate at 1 ug/mL; also called TNFSF15
T1 sequence (looked up): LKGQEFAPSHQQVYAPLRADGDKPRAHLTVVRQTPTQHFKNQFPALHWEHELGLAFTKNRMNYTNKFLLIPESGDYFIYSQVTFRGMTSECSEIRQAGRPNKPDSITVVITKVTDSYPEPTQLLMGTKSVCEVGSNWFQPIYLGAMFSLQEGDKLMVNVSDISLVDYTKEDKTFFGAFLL

B1: A130 (antibody, human IgG1, V domains shown)
VH: QVQLVQSGAEVKKPGASVKVSCKASGFDIQDTYMHWVRQAPGQGLEWMGRIEPASGHIKYDPKFQVRVTMTRDTSTSTVYMELSSLRSEDTAVYYCARSGGLPDWWGQGTTVTVSS
VL: EIVLTQSPGTLSLSPGERATLSCRASSSVSYMYWYQQKPGQAPRPWIYATSNLASGIPDRFSGSGSGTDFTLTISRLEPEDFAVYYCQQWEGNPRTFGGGTKLEIK
notes: human IgG1/kappa (pFuse vectors), culture supernatant
B2: A143 (antibody, human IgG1, V domains shown)
VH: B1 VH with V66G
VL: B1 VL with P45L, W46L
notes: as for B1
B3: A140 (antibody, human IgG1, V domains shown)
VH: B1 VH with A40R, E52D, I58T, M70I, R72T, V79A, M81L, W105V
VL: B1 VL with P45L, W46L
notes: as for B1
B4: A150 (antibody, human IgG1, V domains shown)
VH: B1 VH with V66G, V68A
VL: B1 VL with W46L
notes: as for B1
B5: A132 (antibody, human IgG1, V domains shown)
VH: B1 VH with V66G, V68A
VL: B1 VL with W46L, E91K
notes: as for B1
B6: A136 (antibody, human IgG1, V domains shown)
VH: B1 VH with R38K, V66G
VL: B1 VL with W46L, E91K
notes: as for B1
B7: A142 (antibody, human IgG1, V domains shown)
VH: B1 VH with A40R, E52D, I58T, M70I, V79A, M81L, W105V
VL: B1 VL with P45L, W46L
notes: as for B1
B8: A139 (antibody, human IgG1, V domains shown)
VH: B1 VH with A40R, E52D, I58T, M70I, R72T, V79A, M81L, W105V
VL: B1 VL with P45L, W46L, E91S, G92R
notes: as for B1
B9: A137 (antibody, human IgG1, V domains shown)
VH: B1 VH
VL: B1 VL with P45L, W46L, E91S, G92R
notes: as for B1
B10: A147 (antibody, human IgG1, V domains shown)
VH: B1 VH with R38K, A40R, V66G
VL: B1 VL with W46L
notes: as for B1
B11: A145 (antibody, human IgG1, V domains shown)
VH: B1 VH with V66G, V79A
VL: B1 VL with W46L
notes: as for B1
B12: A135 (antibody, human IgG1, V domains shown)
VH: B1 VH with V66G, V79A
VL: B1 VL with W46L, E91K
notes: as for B1
B13: A133 (antibody, human IgG1, V domains shown)
VH: B1 VH
VL: B1 VL with W46L, E91K
notes: as for B1
B14: A138 (antibody, human IgG1, V domains shown)
VH: B1 VH with V68A
VL: B1 VL with P45L, W46L, E91S, G92R
notes: as for B1
B15: A141 (antibody, human IgG1, V domains shown)
VH: B1 VH with A40R, E52D, I58T, M70I, V79A, M81L, W105V
VL: B1 VL with P45L, W46L, E91S, G92R
notes: as for B1
B16: A149 (antibody, human IgG1, V domains shown)
VH: B1 VH with V68A
VL: B1 VL with W46L
notes: as for B1
B17: A146 (antibody, human IgG1, V domains shown)
VH: B1 VH with R38K, V66G
VL: B1 VL with W46L
notes: as for B1
B18: A151 (antibody, human IgG1, V domains shown)
VH: B1 VH with V68A, M70I
VL: B1 VL with W46L
notes: as for B1
B19: A134 (antibody, human IgG1, V domains shown)
VH: B1 VH with V68A
VL: B1 VL with W46L, E91K
notes: as for B1

Target: T1, human TL1A (Fitzgerald #30R-AT070)
Experiment: ELISA titration, coated human TL1A, culture supernatant

| Kd | Binder |
| --- | --- |
| 0.075 nM | B1 |
| 0.085 nM | B2 |
| 0.073 nM | B3 |
| 0.059 nM | B4 |
| 0.062 nM | B5 |
| 0.053 nM | B6 |
| 0.126 nM | B7 |
| 0.074 nM | B8 |
| 0.05 nM | B9 |
| 0.063 nM | B10 |
| 0.07 nM | B11 |
| 0.056 nM | B12 |
| 0.058 nM | B13 |
| 0.069 nM | B14 |
| 0.108 nM | B15 |
| 0.048 nM | B16 |
| 0.065 nM | B17 |
| 0.057 nM | B18 |
| 0.055 nM | B19 |
